Here are results for one molecule from PMC9951844.

The term Kd denotes the free concentration of one partner at which half of the binding sites on the other are occupied at equilibrium, for simple one-to-one binding.

For the assay, the target named is SARS-CoV-2 wildtype spike antigen of the SPR column (construct not stated) (SARS-CoV-2). The experiment in a line: SPR. (SPR reads the build-up and loss of mass on a sensor chip optically.)

B1: YB9-258 (antibody, V domains shown)
VH: EVQLVESGGGLIQPGGSLRLSCAASGLTVSSNYMHWVRQAPGKGLEWVSVLYAGGSAFYADSVKGRFTISRNNSKNTLYLQMNSLRAEDTAIYYCARGLGDYLDSWGQGTLVTVSS
VL: DIQMTQSPSSVSASVGDRVTITCRASQGIGSWLAWYQQKPGKAPQLLIYAASTLQSGVPPRFSGSGSGTDFTLTITSLQPEDFASYYCQQANSVLALTFGGGTKVEIK
For the molecule B1, the Kd came out at 0.18 nM. This counts as sub-nanomolar.
